The values that follow come from US20250270584A1 (University of California, published 2025).

For experiment [1], the target named is T1, CaM7 (calmodulin 7) (Arabidopsis thaliana, UniProt P59220 1-149).
T1 construct: also called AT3G43810; pBudCE4.1-EF-1α-CaM7
The experiment is described as follows: IP-MS, anti-Flag IP of GLR3.3-3Flag from leaves of transgenic plants; co-enrichment, may be indirect.

Experiment [2] has as its target T2, 3Flag-CaM7 (Arabidopsis thaliana, UniProt P59220 1-149).
T2 construct: also called p35S::Flag-CaM7
The experiment is described as follows: Co-IP with anti-GFP agarose from transgenic plants expressing GLR3.3-EGFP and 3Flag-CaM7.

Experiment [3] concerns the target T3, GST-CaM7 (Arabidopsis thaliana, UniProt P59220 1-149).
T3 construct: also called pGEX-CaM7
Nature of the experiment: pull-down with CTD deletion variants.

B1: GLR3.3-3Flag (receptor)
chain: EKPKVVKIGSIFSFDSVIGKVAKIAIDEAVKDVNSNPDILSGTKFSVSMQNSNCSGFMGMVEALRFMEKDIVGIIGPQCSVVAHMISHMANELRVPLLSFAVTDPVMSPLQFPYFIRTTQSDLYQMDAIASIVDFYGWKEVIAVFVDDDFGRNGVAALNDKLASRRLRITYKAGLHPDTAVNKNEIMNMLIKIMLLQPRIVVIHVYSELGFAVFKEAKYLGMMGNGYVWIATDWLSTNLDSSSPLPAERLETIQGVLVLRPHTPDSDFKREFFKRWRKMSGASLALNTYGLYAYDSVMLLARGLDKFFKDGGNISFSNHSMLNTLGKSGNLNLEAMTVFDGGEALLKDILGTRMVGLTGQLQFTPDRSRTRPAYDIINVAGTGVRQIGYWSNHSGLSTVLPELLYTKEKPNMSTSPKLKHVIWPGETFTKPRGWVFSNNGKELKIGVPLRVSYKEFVSQIRGTENMFKGFCIDVFTAAVNLLPYAVPVKFIPYGNGKENPSYTHMVEMITTGNFDGVVGDVAIVTNRTKIVDFTQPYAASGLVVVAPFKKLNSGAWAFLRPFNRLMWAVTGCCFLFVGIVVWILEHRTNDEFRGPPKRQCVTILWFSFSTMFFAHRENTVSTLGRLVLIIWLFVVLIINSSYTASLTSILTVQQLSSPIKGIESLRERDDPIGYQVGSFAESYLRNELNISESRLVPLGTPEAYAKALKDGPSKGGVAAIVDERPYVELFLSSNCAYRIVGQEFTKSGWGFAFPRDSPLAIDLSTAILELAENGDLQRIHDKWLMKNACTLENAELESDRLHLKSFWGLFLICGVACLLALFLYFVQIIRQLYKKPTDDAIARDQQQNHDSSSMRSTRLQRFLSLMDEKEESKHESKKRKIDGSMNDTSGSTRSRGFDRERSFNSVNPLD
notes: Bait of the IP-MS, expressed in the glr3.3/glr3.6 mutant background; also called p35S::GLR3.3-3Flag; not shown: C-terminal 3Flag tag of vector pCambia1300-3Flag
Regarding B1, the binding result in experiment [1] is listed as “binds”.

B2: GLR3.3-EGFP (receptor)
chain: EKPKVVKIGSIFSFDSVIGKVAKIAIDEAVKDVNSNPDILSGTKFSVSMQNSNCSGFMGMVEALRFMEKDIVGIIGPQCSVVAHMISHMANELRVPLLSFAVTDPVMSPLQFPYFIRTTQSDLYQMDAIASIVDFYGWKEVIAVFVDDDFGRNGVAALNDKLASRRLRITYKAGLHPDTAVNKNEIMNMLIKIMLLQPRIVVIHVYSELGFAVFKEAKYLGMMGNGYVWIATDWLSTNLDSSSPLPAERLETIQGVLVLRPHTPDSDFKREFFKRWRKMSGASLALNTYGLYAYDSVMLLARGLDKFFKDGGNISFSNHSMLNTLGKSGNLNLEAMTVFDGGEALLKDILGTRMVGLTGQLQFTPDRSRTRPAYDIINVAGTGVRQIGYWSNHSGLSTVLPELLYTKEKPNMSTSPKLKHVIWPGETFTKPRGWVFSNNGKELKIGVPLRVSYKEFVSQIRGTENMFKGFCIDVFTAAVNLLPYAVPVKFIPYGNGKENPSYTHMVEMITTGNFDGVVGDVAIVTNRTKIVDFTQPYAASGLVVVAPFKKLNSGAWAFLRPFNRLMWAVTGCCFLFVGIVVWILEHRTNDEFRGPPKRQCVTILWFSFSTMFFAHRENTVSTLGRLVLIIWLFVVLIINSSYTASLTSILTVQQLSSPIKGIESLRERDDPIGYQVGSFAESYLRNELNISESRLVPLGTPEAYAKALKDGPSKGGVAAIVDERPYVELFLSSNCAYRIVGQEFTKSGWGFAFPRDSPLAIDLSTAILELAENGDLQRIHDKWLMKNACTLENAELESDRLHLKSFWGLFLICGVACLLALFLYFVQIIRQLYKKPTDDAIARDQQQNHDSSSMRSTRLQRFLSLMDEKEESKHESKKRKIDGSMNDTSGSTRSRGFDRERSFNSVNPLD
notes: Used in the Co-IP with anti-GFP magnetic agarose; also called pGLR3.3::GLR3.3-EGFP; not shown: EGFP fusion partner
On to B2, for which, in experiment [2], the binding result was “binds”.

B3: MBP-CD2 (other, not shown: large carriers)
chain: LYFVQIIRQLYKKPTDDAIARMDEKEESKHESKKRKIDGSMNDTSGSTRSRGFDRERSFNSVNPLD
notes: domain: CTD
For B3, in experiment [3], the binding result is given as “no binding”.
